Measurements from the supplement of paper PMC9170038.

Tested on: K4 kissing-loop RNA reporter
Experiment: apparent KD of K4 kissing-loop reporter; higher = weaker reporter binding
Settings: Eterna round: R107
Procedure: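 RNA-MaP round R107: designed RNA switches with theophylline, tryptophan, arginine or FMN aptamers are transcribed on-chip within common flanks. They are titrated with a labelled K4 kissing-loop RNA reporter in RNA-MaP buffer (100 mM Tris pH 7.5, 80 mM KCl, 4 mM MgCl2), without ligand or with the indicated ligand. Median apparent KD per design.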

[1] = input ligand: theophylline 20 uM
[2] = input ligand: tryptophan 2.4 mM
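Further: bound reporter read as fluorescence of individual clusters on recovered sequencing chips by microscopy, with normalized cluster intensities fitted with a binding model.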

| Sequence | apparent KD of K4 kissing-loop reporter (input ligand: FMN 200 uM) [µM] | apparent KD of K4 kissing-loop reporter (input ligand: arginine 13.2 mM) [µM] | apparent KD of K4 kissing-loop reporter (input ligand: none) [µM] | apparent KD of K4 kissing-loop reporter [1] [µM] | apparent KD of K4 kissing-loop reporter [2] [µM] |
| --- | --- | --- | --- | --- | --- |
| GUGAAGGAGAUGCAGUGAUGUUGCAGAGACUAGGAUAUCAGGAAACUGAGAAGGAGUCAAUUCCUUCAUUUAGACUGCAACAUAA [KL-SSFMN-A12] | 0.204 | 0.139 | 0.138 | 0.296 | 0.191 |
| GUGAAUGGCUGAGCAGCCGUGGUACGAGAUACCAGUGAUUUCGAUCACCCUUGGCAGCUCGGCGUGAGUGAUGUUCACGCUACAC [Theo A SS t12a] | 0.273 | 0.278 | 0.3 | 0.33 | 0.27 |
| GUGUGGAUCCGAAGGAGCGUCCGCAAUCCAGUGAUGUUGGGUGUUGGUUUUAGUAGACGAGGACAGGUAGGUCGCGGAUUUACAA [Same State Arginie B GF 23] | 0.133 | 0.104 | 0.153 | 0.11 | 0.105 |
| GUUACGCAUGGAAGGAGCGCACUCCGAUUGAUCGACACAGUGAUGUUGUGGUUCGUUCGAAUGCAGGUAGGUCGCCAUGUGUAAC [Ex Arginine B K4 17] | 0.259 | 0.25 | 0.253 | 0.303 | 0.233 |
| GUUACGCAUGGAAGGAGCGCAUGCUCAACUAUAAGCUCAGUGAUGUUGAGCAUUUUUUUUUUGCAGGUAGGUCGCCAUGUGUAAC [Ex Arginine B K4 29] | 0.32 | 0.255 | 0.386 | 0.438 | 0.217 |
| GUUACGCAUGGAAGGAGCGCUCUCAUGCUUAAUAACACAGUGAUGUUGUGAAUUUGCAUAAAGCAGGUAGGUCGCCAUGUGUAAC [Ex Arginine B K4 8] | 0.399 | 0.303 | 0.359 | 0.291 | 0.332 |
| GUUACGCAUGGAAGGAGCGCUCUCCGGUUUAUUAACACAGUGAUGUUGUGAUUUUACCGAAAGCAGGUAGGUCGCCAUGUGUAAC [Ex Arginine B K4 12] | 0.356 | 0.32 | 0.416 | 0.381 | 0.372 |
| GUUUCUUGGAAACAAGGACCGCUAACCGAAGGAGCGAGUGAAAACUCAGGUAGGUCGCGGUAGCGGAGUGAUGUUCCGCGUUUAC [Excluson Arginine A GF 15] | 0.0913 | 0.129 | 0.123 | 0.15 | 0.0998 |
| UAAAACGCUUGAAUAACAAGCGAAAAUUCGCGAGGACCGGUACGGCCGCCACUCGCUAACUGCGAGUGAUGUUCGAUAAUAAAAU [Mat - Mod of OpenEnded 3 - D4] | 0.149 | 0.0701 | 0.158 | 0.188 | 0.0955 |
| UAACUCUUGCAGUGAUGUUGCAAGUAAGCUCAGGAUAUCAGGAAACUGAGAAGGGAGUAUCCUGAGCUUCUGCAAGAGCUCAGAA [KL-SSFMN-A5] | 0.227 | 0.0832 | 0.362 | 0.0686 | 0.0973 |
| UAAGAAUAAGUAGCAGUGAUGUUGCUACUGCGAGGACCGGUACGGCCGCCACUCGAGUCCUCGAAGCAUCACUGAACGAGGAAUA [whbob_SS_Tryp_A_m12] | 0.272 | 0.229 | 0.278 | 0.326 | 0.36 |
| UAAGCUCUGACGGCCGCCACUGCACGUGAUCCAGUAGUGGCUAACAUGAGUGAUGUUCAUGUAAGCAGGACCGGGUCAGAGCUAA [KL-XTryp-B13 #analogue] | 0.103 | 0.0879 | 0.0947 | 0.0817 | 0.12 |
| UAAUAAAUUCCAGCGAUAUCGCUCUUCGAAGGAGCGGGCGAAGGUCCAGGUAGGUCGCGGAGAGUGAUGUUCUUUGCGGCGCUGG [whbob_Ex_Arginine_A_2t135] | 0.216 | 0.225 | 0.239 | 0.226 | 0.273 |
| UAAUAUAACCGAAGGAGCGCGUGGGCGCAGUGAUGUUGCGCCCGACAUCACUUCAACUAAACGCAGGUAGGUCGCGGUAAUAAUA [Arginine B (Excl) V1] | 0.134 | 0.0831 | 0.104 | 0.0842 | 0.0984 |
| UAAUUUAUGUCUUUAAUUUAAUAAUCAGAUACCAGUGAUUUAUGACACCCUUGGCAGCUGUAUUGAGUGAUGUUCUUAUACUUAA [JR_Nu_ExcTheophyA_Sub021] | 0.131 | 0.169 | 0.171 | 0.212 | 0.101 |
| UACAAUUUGGCGGCCGCCACUGACCAUAGCCUUCGAUGGCCAGUGAUGUUGGCCUCUGGCUCUAACAGGACCGGGCCAAAUUAUG [Maeste] | 0.313 | 0.216 | 0.271 | 0.245 | 0.117 |

| Sequence | apparent KD of K4 kissing-loop reporter (input ligand: FMN 200 uM) [µM] | apparent KD of K4 kissing-loop reporter (input ligand: arginine 13.2 mM) [µM] | apparent KD of K4 kissing-loop reporter (input ligand: none) [µM] | apparent KD of K4 kissing-loop reporter [1] [µM] | apparent KD of K4 kissing-loop reporter [2] [µM] |
| --- | --- | --- | --- | --- | --- |
| UACAUAUAGUUAUUUCUACAUUUAUUUAGUCAGGAUAUCGAUUAGACGAGAAGGGACAAUAUCAAGUGAUGUUUGAUAAUUCAAA [JR_ExcFMNA_Sub011] | 0.0757 | 0.111 | 0.0684 | 0.1 | 0.0532 |
| UACGUAGAGCGAGGAUAUCCUUCCCACGUCGAAGUACCGUGCUUGAUGGAGUGAUGUUCGAUCAGAGGAGAAGGUGCGAAACGUC [Flavin Switch Lower Fold Energy] | 0.725 | 0.618 | 0.724 | 0.622 | 0.524 |
| UACUGGGCGAGUGAUGUUCGCUCACGUGAUACCAGUGCCAUCCAACACCCUUGGCAGCACGCGGGCAGUGAUGUUGUCCUUGUAU [Exclusion Theophylline A GF 5] | 0.127 | 0.112 | 0.123 | 0.129 | 0.111 |
| UAGACCAGUGAUGUUGGUUCCAAGACGGAUACCAGACUGGCAGAAGUCCCUUGGCAGCUGUAGACCUUGUGAGCUACAAGGUCGG [Theo A SS t2] | 0.923 | 0.184 | 0.44 | 0.17 | 0.295 |
| UAGCGAUGAAGUGAUACCAGAGAGUGAUGUUCUUUUUUUAUUCAGAAUACUGUCGCCUUGCUCCCUUGGCAGCACGCAGGCGCAG [theeternabot_exclusion_KL_Theo_B_18] | 0.206 | 0.255 | 0.258 | 0.311 | 0.171 |
| UAGCGUCUGCGAGGAUAUCGGAUUAGAGUGAUGUUCUAAAGACGCCCAGUGAUGUUGGAUGCGAUACGAGAAGGCGCUGGGCGCG [Same State FMN B GF7] | 0.182 | 0.358 | 0.399 | 0.332 | 0.297 |
| UAGGAGUGAUGUUCCAUAUCUUGAGCCGAAGGAGCGCCUUUAUAGGCAGGUAGGUCGCGGCAGAAGGUACCAGUGAUGUUGGAAA [Same State Arginine A GF6] | 0.147 | 0.147 | 0.164 | 0.145 | 0.135 |
| UAGUCCUAGUGAUCGUUAUCAAGUGGUGGGCGAGGACCGGUACGGCCGCCACUCGACUAUGCAGUGAUGUUGCAAUCCGGACAAU [Exclusion - Tryptophan A (Freestyle 14)] | 0.209 | 0.238 | 0.222 | 0.254 | 0.213 |
| UAGUCCUAGUGAUGGUUAUCACGUGGUGGGCGAGGACCGGUACGGCCGCCACUCGACUUUGCAGUGAUGUUGCAAUCCGGACAAU [Exclusion - Tryptophan A (Freestyle 17)] | 0.194 | 0.215 | 0.24 | 0.224 | 0.258 |
| UAUACGCUAGUGAUGUUGGCGAAGACUGAAGGAGCGUGCGAGAGUACAGGUAGGUCGCAGUCAGACAGAUUGUACCUGUCUUAUG [Arg A SS t10] | 0.268 | 0.243 | 0.295 | 0.349 | 0.356 |
| UAUACUAGACAAGAGAGAAUUCUCUCAAGAGAGGAUAUCCGAAUUCGGAGAAGGCUCUCUCAGUGAUGUUGGGAAUAGUCUAGAA [AK6 SS FMN A] | 0.15 | 0.151 | 0.188 | 0.229 | 0.177 |
| UAUAUAGUGAUGUUAUAUAUACAUUCGGAAGGAGCGUGGUAAAACACAGGUAGGUCGCUGAAAUAAUUAAAAUAAUUUUCUUUUU [AstrosSSArgA#1] | 0.255 | 0.231 | 0.279 | 0.239 | 0.231 |
| UAUAUAUGAUGUGAUACCAGUGAAAAGCCAGUGAUGUUGGAAGAACUGGUAUAUAAAUAACACCCUUGGCAGCACAAUCACGUAU [theophylline b exclusion] | 0.271 | 0.261 | 0.266 | 0.382 | 0.268 |
| UAUCAGAUUACUGAUACCAGUCUAAAGACAGUGAUGUUGUCUGAUCGACCACGAUCCAAGGACCCUUGGCAGCAGUGUACUAUUC [#30 K4 Theophylline B Same State] | 0.177 | 0.183 | 0.194 | 0.205 | 0.191 |
| UAUUAAUUGACGGCCGCCACUAUGGUGAUUUAUUUGUUUGAGUGAUGUUUUGAUGUUUGAUUUUGUAGGACCGGGUUAUGUGUUA [pokcmullin] | 0.962 | 0.738 | 0.853 | 0.748 | 0.68 |
| UAUUAAUUGUCAGGAUAUCGUAUUCGAGUGAUGUUCGUAUAUCGACGAUAGUCGAUAUUAUUUAUACGAGAAGGGACAUUAUUUA [JR_SSFMNB_Sub005] | 0.292 | 0.26 | 0.33 | 0.274 | 0.285 |
